Measured values taken from the supplement of paper PMC9732359.
± gives the uncertainty stated by the source.

Assay: protein stability index of a GFP-peptide fusion (yeast GPS) (PSI 1-4); higher = more stable; sorted into four equal gates, so the index is relative within each strain
How it was run: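 Tiled 17-residue yeast protein peptides were fused downstream of GFP in a plasmid that also expresses Cherry, and the pooled library was carried in yeast. Mid-log cultures in leucine-free medium were sorted into four equal gates by GFP/Cherry fluorescence ratio, and plasmids from each gate were PCR-amplified and Illumina-sequenced, with reads assigned to strains by barcodes. The protein stability index for each peptide was each gate's read frequency times its gate number, summed.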

Sequence | protein stability index (doa10∆) | protein stability index (pdr5∆) | protein stability index (san1∆) | protein stability index (ubr1∆)
QSAIRPAGQATQKRTHV [RPL4A] | 2.83 ± 0.09 | 2.8 ± 0.091 | 2.72 ± 0.085 | 2.5 ± 0.074
EGLELLGWIHTQTEELK [PRP8] | 2.94 ± 0.1 | 2.65 ± 0.091 | 3.16 ± 0.053 | 3.29 ± 0.099
RKNRYVILQSDLEEAYA [RPT3] | 2.41 ± 0.22 | 2.23 ± 0.15 | 2.1 ± 0.17 | 2.11 ± 0.11
KYSDILLKKATKPEVAS [CDC53] | 2.32 ± 0.097 | 2.23 ± 0.12 | 2.47 ± 0.15 | 2.47 ± 0.17
DRKIQGWLGALTMANLP [ARP7] | 2.8 ± 0.066 | 3 ± 0.063 | 2.65 ± 0.069 | 2.81 ± 0.045
KISDDELERILKELSNL [RPB4] | 3.16 ± 0.13 | 3.17 ± 0.091 | – | 3 ± 0.1
TTKLAFLVEYEGQENNY [SIR4] | 2.87 ± 0.085 | 2.85 ± 0.068 | 2.4 ± 0.1 | 3.19 ± 0.052
ELPLLSPERFATLGIDP [RPT1] | 2.41 ± 0.13 | 2.75 ± 0.18 | 3.27 ± 0.16 | 2.52 ± 0.19
GGKAGSAAKASQSRSAK [HTA1] | 3.17 ± 0.072 | 3.14 ± 0.071 | 2.84 ± 0.069 | 3.19 ± 0.048
IKYEFNGIPLKSKERSS [YMR129W/POM152] | 2.39 ± 0.11 | 1.24 ± 0.057 | 1.52 ± 0.26 | 2.98 ± 0.16
ELGISLEHPYGKEVEVL [SNU114] | 2.29 ± 0.082 | 2.34 ± 0.086 | 2.17 ± 0.094 | 2.14 ± 0.056
TLFSSIEPQVINYLALN [ECM29] | 2.31 ± 0.07 | 2.64 ± 0.096 | 2.29 ± 0.21 | 2.09 ± 0.082
YVRAKFLDYTTDNVSMY [PRP8] | 2.82 ± 0.059 | 2.73 ± 0.064 | 2.54 ± 0.063 | 2.82 ± 0.061
YLAHEDNKEKDFELEIS [PRE10] | 2.84 ± 0.17 | 2.86 ± 0.12 | 3.23 ± 0.1 | 3.33 ± 0.072
YSIDEFFLQRKLRSELG [BRR2] | 2.3 ± 0.12 | 2.06 ± 0.13 | 1.8 ± 0.16 | 1.5 ± 0.22
IRQAIAKGLVAYHQKYV [RPS16A] | 1.21 ± 0.096 | 1.27 ± 0.069 | 1.41 ± 0.18 | 1.1 ± 0.033
DVNTNANANANATANAT [SNF11] | 3.13 ± 0.088 | 3.27 ± 0.081 | 3.23 ± 0.045 | 3.32 ± 0.063
HLALEIGEVYNDQVEKD [RPN1] | – | – | 3.41 ± 0.19 | –
KNGTIVKKAVTVHSKSR [RPL19A] | 2.44 ± 0.068 | 2.8 ± 0.068 | 2.45 ± 0.079 | 1.96 ± 0.068
DDQLKQRRQNIRDLEKL [RPT4] | 2.81 ± 0.23 | 3.11 ± 0.29 | 3.12 ± 0.13 | 3.15 ± 0.16

Sequence | protein stability index (doa10∆) | protein stability index (pdr5∆) | protein stability index (san1∆) | protein stability index (ubr1∆)
GNIFSNIGTPSFNMAQI [SNF5] | 2.58 ± 0.099 | 2.66 ± 0.093 | 3.05 ± 0.069 | 2.64 ± 0.054
IGVLNNSSESDEEESND [RPN13] | 3.52 ± 0.2 | 2.4 ± 0.25 | – | 3.37 ± 0.095
PFNKPNIETGENHNGQS [SWI3] | 3.3 ± 0.14 | 3.16 ± 0.12 | 3.22 ± 0.13 | 2.78 ± 0.13
NKIIPNVGLCITIYDLL [RPC25] | 1.43 ± 0.082 | 1.29 ± 0.068 | 1.29 ± 0.13 | 1.5 ± 0.067
TDLKKIIKANQLILSDV [RET1] | 2.57 ± 0.055 | 2.34 ± 0.053 | 2.48 ± 0.053 | 2.39 ± 0.05
LRLKPGRKYTTLGKLST [RPL16B] | 2.69 ± 0.057 | 2.64 ± 0.062 | 3.03 ± 0.036 | 2.97 ± 0.037
NYSSESYRNAFTNVLTK [YJL039C/NUP192] | 2.56 ± 0.047 | 2.38 ± 0.067 | 2.31 ± 0.067 | 2.48 ± 0.038
SDAMSIDEEDKDSESFS [YCG1] | 2.85 ± 0.15 | 1.95 ± 0.1 | 2.61 ± 0.13 | 2.4 ± 0.069
NGAGGLMYATDWQMMTS [CSL4] | 3.23 ± 0.15 | 2.93 ± 0.12 | – | 2.99 ± 0.09
IVGKSNVLVTMPVAPTM [YMR129W/POM152] | 2.66 ± 0.12 | 2.56 ± 0.08 | 2.07 ± 0.17 | 2.65 ± 0.055
ARDLLDDLEKTLDKKDS [RPN9] | 3.21 ± 0.17 | 2.75 ± 0.11 | 3.15 ± 0.12 | 2.56 ± 0.1
KCSTRGLSTDHTTQIVN [YML103C/NUP188] | 2.9 ± 0.079 | 2.9 ± 0.085 | 2.79 ± 0.07 | 3.01 ± 0.054
GKIQENIPFWKHVGFEL [SRP72] | 2.65 ± 0.053 | 2.59 ± 0.055 | 2.37 ± 0.072 | 2.57 ± 0.035
YEADQRKLFPNWIKPSD [PRP8] | 2.99 ± 0.092 | 2.86 ± 0.085 | 2.67 ± 0.11 | 2.96 ± 0.049
KYLYLRAVGGEVGASAA [RPL12A] | 1.66 ± 0.18 | 1.99 ± 0.13 | 1.64 ± 0.13 | 2.11 ± 0.1
DSLKLNSKPVELKPVSL [YJL041W/NSP1] | 2.9 ± 0.082 | 2.79 ± 0.07 | 2.49 ± 0.097 | 2.63 ± 0.1
MMVNISVLISIPLDNYD [PCI8] | 1.43 ± 0.038 | 1.42 ± 0.044 | 1.72 ± 0.065 | 1.41 ± 0.037
RHGFNRSNTGALMRCSF [RPO21] | 2.71 ± 0.059 | 3.01 ± 0.064 | 2.85 ± 0.061 | 2.88 ± 0.079
GQLTGIYRYKYKVMHQI [PRP8] | 2.9 ± 0.14 | 2.2 ± 0.13 | 2.91 ± 0.088 | 2.42 ± 0.081
EPEFHALSQSSLLKTKL [RRI1] | 2.15 ± 0.042 | 2.69 ± 0.039 | 2.39 ± 0.042 | 2.24 ± 0.037
